Data reported in US7455837B2, “Compositions and methods for the diagnosis and treatment of sepsis” (The Regents of the University of Michigan, priority 2002, dated 2008).
One block for each molecule: values may come before it.

Columns and labels:
mouse neutrophils [1] = test: Chemotaxis assay of mouse neutrophils to mC5a; type: cell-based
Method: Five hours later, mice were killed and the peritoneal cavity was lavaged four times with 10 mL DPBS. Fluids were centrifuged and residual red blood cells removed by a hypotonic lysis step. Remaining peritoneal cells were washed and resuspended in HBSS.
After neutrophil isolation, cells were fluorescein-labeled with BCECF (2′,7′-bis [2-carboxyethyl]-5-[and 6]-carboxy-fluorescein acetoxymethyl ester) (Molecular Probes, Eugene, Oreg.). Labeled neutrophils (5×10^6 cells/mL) were then loaded into the upper chambers of 96-well minichambers (NeuroProbe, Cabin John, Md.). […] The upper and lower chambers were separated by a polycarbonate membrane of 3 μm porosity. Minichambers were incubated for 60 min at 37° C. The number of cells migrating through polycarbonate filters to the lower surface was measured by cytofluorometry (Cytofluor II, PerSeptive Biosystems, Framingham, Mass.). For each measurement, quadruplicate samples were used.

mouse C5a receptor = target: T1, mouse C5a receptor (mouse, UniProt P30993 1-351); test: competition of unlabeled mC5a with 100 pM 125I-mC5a on mouse peritoneal neutrophils, 20 min at 4 C
T1 construct: whole, on cells
T1 sequence (looked up): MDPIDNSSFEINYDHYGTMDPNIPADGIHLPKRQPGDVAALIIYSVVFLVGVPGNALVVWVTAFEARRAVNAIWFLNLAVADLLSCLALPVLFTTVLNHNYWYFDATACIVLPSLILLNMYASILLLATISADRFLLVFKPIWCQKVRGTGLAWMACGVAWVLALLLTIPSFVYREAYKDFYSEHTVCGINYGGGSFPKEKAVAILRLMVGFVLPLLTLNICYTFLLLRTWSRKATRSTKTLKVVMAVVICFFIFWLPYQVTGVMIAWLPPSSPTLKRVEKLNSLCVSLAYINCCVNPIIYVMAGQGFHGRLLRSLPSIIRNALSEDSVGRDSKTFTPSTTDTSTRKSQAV
Method: Isolated neutrophils were incubated for 1 h at 4° C. in binding buffer (HBSS without Ca^2+ and containing 1% BSA) to block nonspecific surface binding sites. […] After an incubation interval of 20 min at 4° C., cell suspensions were layered over 20% sucrose and sedimented by centrifugation at 11,000 g (Beckman Microfuge B, Palo Alto, Calif.) for 2 min. […] Binding affinities (K_d values) of C5a were calculated in the conventional manner (Chenoweth et al., (1978) *Proc. Natl. Acad. Sci. USA* 75,3943-3947). […]
Recent reports have described CSaRa binding affinities to rat and human neutrophils (Wong et al., (1998) *J. Med. Chem.* 41,3417-3425; Short et al., (1999) *Br. J. Pharmacol.* 128,511-514). To assess whether C5aRa also binds to mouse neutrophils, competitive binding studies using C5aRa and mC5a were undertaken.

[2] = target: T2, C5aR on mouse peritoneal neutrophils (Mus musculus, UniProt P30993); test: Competitive binding of 125I-mC5a to mouse peritoneal neutrophils; conditions: recombinant protein
T2 construct: Mice were injected i.p. with 2.5 mL sterile 3% thioglycolate medium (DIFCO Laboratories, Detroit, Mich.) for harvesting of mouse neutrophils; endogenous in cells; host or cells: mouse peritoneal neutrophils (thioglycolate-elicited, whole cells)
T2 sequence (P30993 1-351): T1 sequence (looked up)
Method: (§1) Mice were injected i.p. with 2.5 mL sterile 3% thioglycolate medium (DIFCO Laboratories, Detroit, Mich.) for harvesting of mouse neutrophils (Ajuebor et al., (1999) J. Immunol. 162,1685-1691). Five hours later, mice were killed and the peritoneal cavity was lavaged four times with 10 mL DPBS. Fluids were centrifuged and residual red blood cells removed by a hypotonic lysis step. Remaining peritoneal cells were washed and resuspended in HBSS. Aliquots of cells were stained with Diff-Quik Stain (Dade International, Miami, Fla.) and examined for neutrophil purity (>95%) and viability (>97%) by trypan blue exclusion (Fildes et al., (1998) J. Trauma 45,479-484).
For binding studies, mC5a was labeled with […], using the chloramine T-based protocol (Bennett et al., (1997) Methods Enzymol. 288,134-148) with gentle oxidation, which preserves chemotactic activity of mC5a for mouse neutrophils. Isolated neutrophils were incubated for 1 h at 4° C. in binding buffer (HBSS without Ca^2+ and containing 1% BSA) to block nonspecific surface binding sites. […] Binding affinities (Kd values) of C5a were calculated in the conventional manner (Chenoweth et al., (1978) Proc. Natl. Acad. Sci. USA 75,3943-3947). […]

mouse neutrophils [3] = test: Neutrophil oxidative burst (H2O2 generation, PMA-stimulated); type: cell-based
Method: as §1
H2O2 generation was determined in the presence of 1 mM sodium azide. As indicated, mouse neutrophils (2×10^6 cells/mL) were pretreated with mC5a (10 nM) for 60 min at 37° C. in the presence or absence of different amounts of C5aRa. To stimulate neutrophils, cells were then incubated with PMA (25 ng/mL) for an additional 10 min. The reaction was stopped by addition of 0.1 mL trichloroacetic acid (50% v/v), then ferrous ammonium sulfate (1.5 mM) and potassium thiocyanate (0.25 M) were added to supernatant fluids. The absorbance of the ferrithiocyanate complex was measured at 480 nm and compared with a standard curve generated from dilutions of reference solutions of H2O2.

Molecule: ^125I-C5aRa: C5aRa labeled with 125I by the chloramine T method (FXPXWR; non-natural residues; cyclised or stapled) [reference compound]
chemotactic response to mC5a in presence of radiolabeled antagonist (mouse neutrophils [1]; 10 nM 125I-C5aRa, mC5a 1-100 nM): virtually completely suppressed

Kd (mouse C5a receptor): ~3 nM
B1: recombinant mouse C5a (ligand, UniProt P06684 679-755, looked up)
chain: NLHLLRQKIEEQAAKYKHSVPKKCCYDGARVNFYETCEERVARVTIGPLCIRAFNECCTIANKIRKESPHKPVQLGR
modifications: 125I label (chloramine T) on the tracer form only; the competitor was unlabeled
notes: domain: C5a; Expressed in E. coli BL21(DE3) pLysS from pET 15b (NdeI/BamHI) and purified over a Ni2+ column; C5a is only a fragment of it; also called mC5a; recombinant mouse (m) C5a

binding to mouse neutrophils [2]: high-affinity binding
B2: mC5a: recombinant mouse C5a expressed in BL21 (DE3) pLysS cells, purified over a Ni2+ column (protein)
chain: B1 chain
chemotactic response evoked by the substance alone (mouse neutrophils [1]; 10 nM): robust chemotactic response | biological (chemotactic) activity (mouse neutrophils [1]; recombinant protein): had biological (chemotactic) activity | basal H2O2 production vs ctrl cells (mouse neutrophils [3]; 10 nM alone, 60 min at 37° C., no PMA): neither mC5a alone nor C5aRa alone significantly altered | PMA-stimulated H2O2 production after exposure to mC5a (mouse neutrophils [3]; 10 nM mC5a 60 min, absence of C5aRa, then PMA 25 ng/mL): completely abolished
